Source: paper PMC10203562

Assays:
Assay in all cases: SPR; Biacore 8K+; anti-human IgG (Fc) amine-coupled to CM5 captures the antibody (10-25 RU); PCSK9 50 nM to 12 pM flowed over, 240 s association, 1800 s dissociation; Langmuir 1:1 global fit; duplicates
bococizumab variant AEPA = molecular target: bococizumab variant AEPA
bococizumab variant SEGQ = molecular target: bococizumab variant SEGQ
bococizumab variant PFGQ = molecular target: bococizumab variant PFGQ
bococizumab variant AEGQ = molecular target: bococizumab variant AEGQ
bococizumab variant SELW = molecular target: bococizumab variant SELW
bococizumab variant PELW = molecular target: bococizumab variant PELW
bococizumab variant PEGQ = molecular target: bococizumab variant PEGQ
bococizumab variant PENW = molecular target: bococizumab variant PENW
bococizumab variant PERQ = molecular target: bococizumab variant PERQ
bococizumab = molecular target: bococizumab
bococizumab variant EDGM = molecular target: bococizumab variant EDGM

Substance: proprotein convertase substilisin/kexin type 9 (PCSK9) (from UniProt Q8NBP7 153-692) (natural protein)
- Kd (bococizumab variant AEPA): 0.21 nM
- Kd (bococizumab variant SEGQ): 0.35 nM
- Kd (bococizumab variant PFGQ): 0.25 nM
- Kd (bococizumab variant AEGQ): 0.19 nM
- Kd (bococizumab variant SELW): 0.27 nM
- Kd (bococizumab variant PELW): 0.19 nM
- Kd (bococizumab variant PEGQ): 0.2 nM
- Kd (bococizumab variant PENW): 0.24 nM
- Kd (bococizumab variant PERQ): 0.25 nM
- Kd (bococizumab): 0.25 nM
- Kd (bococizumab variant EDGM): 0.66 nM
